2 molecules from paper PMC5849709, “Structure-based design of chimeric antigens for multivalent protein vaccines” (Nature Communications, 2018) can be followed below.

Common to all, as to experiment: SPR
Assay [1] addresses fHbp^V1.1:PorA^151/P1.16 (N. meningitidis) (UniProt Q9JXV4).
Assay [2] addresses fHbp^V1.1:PorA^117/P1.16 (N. meningitidis) (UniProt Q9JXV4).
Assay [3] addresses fHbp^V1.1:PorA^294/P1.16 (N. meningitidis).
The target in assay [4] is fHbp^V1.1:PorA^267/P1.16 (N. meningitidis) (UniProt Q9JXV4).
For assay [5], the target named is fHbp^V1.1:PorA^309/P1.16 (N. meningitidis).
Assay [6] deals with T1, factor H binding protein (fHbp) peptide V1.1, N-terminally truncated, soluble (N. meningitidis, UniProt Q9JXV4 25-274).
T1 sequence: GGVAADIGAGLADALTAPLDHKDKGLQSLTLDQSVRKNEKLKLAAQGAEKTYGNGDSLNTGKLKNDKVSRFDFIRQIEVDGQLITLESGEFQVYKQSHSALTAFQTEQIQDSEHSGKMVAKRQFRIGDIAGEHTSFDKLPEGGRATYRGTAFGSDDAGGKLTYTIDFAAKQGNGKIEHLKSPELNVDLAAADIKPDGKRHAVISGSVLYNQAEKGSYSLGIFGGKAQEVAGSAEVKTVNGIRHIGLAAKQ
Conditions: both partners purified.

For orientation: Kd means the concentration at which binding is half-saturated. Read a high Kd as weaker binding.

Consider “domains 6 and 7 of human complement factor H (CFH6/7) (from UniProt P08603 321-444) (domain or fragment)”, for which the Kd in assay [1] turned out to be 2.3 nM; in assay [2] it was 2.3 nM; in assay [3] it was 2.7 nM; in assay [4], 28 nM; in assay [5] it was 5.5 nM.

B1: domains 6 and 7 of human complement factor H (CFH6/7) (domain or fragment, UniProt P08603 321-444, looked up)
chain: TLKPCDYPDIKHGGLYHENMRRPYFPVAVGKYYSYYCDEHFETPSGSYWDHIHCTQDGWSPAVPCLRKCYFPYLENGYNQNYGRKFVQGKSIDVACHPGYALPKAQTTVTCMENGWSPTPRCIR
For B1, the Kd in assay [6] turned out to be 3.6 ± 0.4 nM.
